# Experimental data taken from the NTF2 design screens of Basanta et al. (2020).
# Assay: protease stability score; higher = more stable; yeast display proteolysis, trypsin and chymotrypsin;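 also: log10 excess protease needed over predicted unfolded state with 0 meaning unfolded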
row,Sequence,protease stability score
1,DEDALTRIEDAAKHMNEGNFERYADMADPNAHVNIGDKTYQGRESLKHLMQEQRERWEFKLDVRRVDQDGEKAVVTAKVNQKHNGKPDTKTVYIYVSWKNGRAQEIEVRQDS,0.319
2,EEDQERQAEKLIRILENGDEDKAKEQADPNARFEYGDKKYHGMSNFATEVKKLRDHARVEFDNIRVRAHGDKVRIRLDFKVNINGDPSRFNVHMFNQMHNGQFKQMYKDLDPTELEQIHK,-0.25
3,DEESLAKEFIKHVNDNADTGNPDDMAELFDPNARIEVGDKKYDGHKDITKLNEELNREADHIKYTINSVKRDGDFVRLDIEVRMDVNGKDVNHRYRANVAVTNGRLVVRSLTSS,0.891
4,DEERQQKVADDLATIMTNGNPDQMLELADKDVKAKYGDTEIHGREKVREYWKTIRDQADHIHIDTFKAENGQVDIQAHAKFNGKDYKFNLRIEFDNGRIKSIVVQEQ,0.278
5,DQEREMQEWYEKLVRNYENNDRDRLNELLDPNAQFNVGDQTFHGRENAKKWLKTMVDKVDSVEFDLRRLHVHGNKVVFHANVRYRVNGTDTTVDVVIVARVDNGRLRVEKVEYG,1.28
6,DEHVEKRVDEWWKALRQNNPDEANKNMDPNAKLHIGDKTVHGREEAKRQIENRFKEMRFSYKVRHLTAENGEVEIEATFKVEHNGQPRSRSMRMSINVHNGRIVDIQVDIDPRDQQKFRK,0.041
7,EENNLELAHRVMENIQTNNPDEVVKQLDPNARIQVGDKVYHGREQARKMVEDLIDRLRVQIDSVDLEVQGDKAQLEFTQIEEHNGRPNSAKFIVDVTVHNGRVQNMEFREHK,0.891
8,DERNQRNLEKMLKAQERGNPDLLEELVDKNVKIEVGDKSVHGREELHRQQDRRRKQATLRYDDLRMKVSGNKVRVDMKFQVNHDGKPEKATADATYEFDNGKLKHVSVRVRQ,-0.06
9,DEHANETVKRILRDIRHNNPHEIRKNMDPNAKVVIGDKTIHGREEAARQLKREMHEIRVEVKHIDMKVHDGRVNVNFDVVLDSNGNPQRQSYRMVVRVHNGTVHYLSKSDTR,-0.041
10,DESLMKVAQEVHDAWNQGDPTKLQENFDKDAEIQVGDKQIHGREDATRELDRKKKQQRFEVQVTSMTAQNGDVKVDARFHFKHNGRPDERRFKLTINAENGRIQEASIDQTK,-0.151
11,DKELRKHLTEFVKNYQHGNERELNKYADPNVKFRYGDKTLNGREEWMKHIQRLKKEIRFEIDDFRIRARNGELDMTFDFKQEVNGRPKSDRAQMNVVMHNGKIVEIDFRVDPTFEKEVKG,0.376
12,DEEELKHINRELVEVAKTGNPDEWRKLMRKDVTMHVGDKTYHGREKVREHAKTLRDRIDHINVRSVSATGDKVVLNFEAKVNGQTRTYQFQARVHNGRIVSAHINER,0.006
13,DEEDQEKFARDFVRILKDGNPDRARKMFDENARVHVGEKVVHGRDQIRTLVEEIHRRADRINITDFRVHGNSFVFIVVLEKNGETRSFTIVVIVHNGRAQSMHVQSN,0.96
14,DDEKLTTVLKELMKAFEKGDNKKFVDLLDKDVTIDYGDKKVHGRDEATEVFHKIRRQVDHVQVSDMKFENGRASIRATLHFNGKNMEVTFEAVIKNGRIKHAQVEVRDPDELRKMES,1.03
15,DEESQKQMMKEMSDVWKHNDPDEAQKLADKDVKIRYGDREYHGREDFVSAMREFSKQADSITVKHMTVQGDKIVLDIIIQYDGQHREIVVIVHVHNGRIQELQIQDG,0.637
16,DEELHTIANEFNKALDRGDRKKLVDLADPNAQAVVGDQTLHGMEHVAHTIKKRQEEMRLDLKSVSVSVKGNNAILNFNALLHVNGKPVEISMRIILTVSNGKIQVIVEQFDPEQMRTARK,-0.289
17,EEESAQEFMKNLNTGNFEELNKMADENARMQVGDKTFQGRHQIETLLKTLKKQIDHVSFKSVEMNGDKVDAKVVFQVNGQHFEVIVKVDVRGDRVTHVTYEFTNEDQEERFKRAVQ,1.35
18,DEDLKKRFKRMLRNLQNNNEENAHELMDPNARWRYGDKVLHGHEQLIEEWKRIHDRMRVEYKSVEVTASGDKVVVEIVFTRHKNGSPDSDNTRWKAVYNNGKLKDMMVTEDG,0.637
19,DERALKMIREFEEIRSKGDERQLSEQVDKDADFHVGDKRLTGMDRVASELVQEVRDWRVSVDIKRMSISNGSLDIDAQVRFSHNGKPVTVHLDLKIIVHNGTIKQIEITNQP,0.698
20,DEEADKRITEQLKQEQEGDKDKVKEQIDPNARIKVGDKTIHGMDEYVRMVHRTRREQRRRIRVVSVEVRGNTAKVDADRHIDVNGRPVRYRIEFHVEFHNGKVTDIHVHTDQEQKKKQHG,0.655
21,DEEQVEHMRRIVQEGDFDELKDNADPNARVQVGDKRYHGREQVQHVMKNFRDKADHVEISSIKQDEDHVSAEMHVEVNGERFVIRIHFVVHNGRLEQINIQVTSERDQKKLKKMLD,0.185
22,DDQNLRSAVRRLVDGNEERAKDTLDENARVEVGEYNFHGREEAQKAFQTMQDRIDHINVKSYKYQGDKASVDMVVEFNGRSVKFVVVVRVHNGHLVNARVQFTDEHQHKRAKEMID,-0.104
23,DEEEQKKRAKKQADAMRQGDTDELVKMLRDDVRVKVGDKEVHGREDLKKWAREIKKEVDHIQIRQVQVHNGRIDFHIVVNHNGKNKEVVLVVRVRNGQATDFKLTRK,0.051
24,DEEKVKRLLKRVAEDYVSGDAETVRKLGKDDAELEVGNTTYHGKEQMYKVVEEFKKYGVRLQVRNAEVRGNKVTMEVDLDMGGDTWKFTVHVEADGGKADKVKIDVSEEVKKRIEHG,0.291
25,DEQDQARKNVKTLANAIEDNDENQVHRLMDPNARLRIGDKDYHGREEAAHAMREIRETFDHIRIQVTRVRVEGDKINLIAKVNRNHNGRNEESEVDIQFVQDNGRARIVRLVDR,0.554

row,Sequence,protease stability score
1,DEEEFKKHAEQVIRILEHGDPDQMKKNADPNAKIEVGDRTYHGHDRMREFVKRLRDRVDHMSVETWSAHNGRIHIHFRVDINGKDVRVVMQLTVDNGKIKRLRVKSG,0.914
2,DEDKKADEFMKRWIDNLQNGNEDELRKLIDPNARLDIGDKTLHGREDIVHHLSETLKRVDHLEIRVEHIEVQGDKATFVYHITMRTNGRTHSSEVQFEAEEHNGNLIIKSIHER,1.57
3,DERKAEQNARDLAQALITGDPKRVMDLADENAEVQYGDKTYSGRERLDEVVRSFRRAVDHVDVDDIKEKGDHLRIKMTIQHNGQTRQVTLDIRVKNGKAEQIKFDFTDKDWYRRAIK,0.344
4,DEKKVKEIAKKAFEYAVKGNEEQLQKLVKPNVDYEYVDEKYEGEDVVKKMVRLLKKVGAEVKIKRYEVKGDTVKADFDYNKGDKTVRTTAEVVYNGDKITQARLELTDEVKKIMHQG,0.681
5,TEEDVLKVLETLMKAFFDGNPKEVKEMGKEDVKFQVGDQEVRGVDQMTKRVKEYRDQGIEFHLKRYKVEGDQVTAEAEVVMGDKKARVTAHYKADDGRVDETRVEMSDEAKKLFKHG,0.432
6,DTSDNKRAKELLDVLRTGDKEDFKNLVDENVRVVVGDKEVHGRDEIAEDISRKKKEMRYTFKVEDLQDHNGHVKVDMRQSSEHNGSPHHSDAKVTVNFENGKVHDVVLRDDG,-0.04
7,DEDQAKTIEELWRTNDFDTLATQADKDVHNHVGDKKIHGRTQHTQAQERIRRAVDHFDVKRVNIQGNKVDIDVVMEVNGKNVHMTVVITVHNGKIKHMSMRVRDEEVKKLFEEMEQ,0.527
8,DESEMDTAVKIVEKGDPHQYKKLIDPNAKIIVGDKELHGREDVERLLHKLYEQADHVQINSITVQGDELRVDAQFKFNGRDIRMVVEFRVHNGRVKSAHIQATSEEQERELSKMIS,1.35
9,DEEEQDKVRKNIHHNNFDHLVQMADPNAHVKIGDKRIHGREELRKYQEKLKKQADHFSIDDMKVEGNKFKVKNNFKVNGQSFEHDYEATVQNGRLKSATVDARDEEDKKKLNEQMS,0.451
10,EEELVKKAKTFMKQEEDGNPEKLKEYADENVRMHVGNKEVRGMDQYAEDVRRKREEARFSFKSIDAKASGDKITVRATLTFNVNGKPVEIDMTIILKLHNGRLKFLKVRVDPDEERRLES,0.595
11,DEKDAREWVKDREQNDFDQISRMMDENVKLEYGNKEVHGRERVNTELKKEEETADHVSIDRVEVEEGRAVIDAVVRFNGKDFKMVVTVSMENGKVKYIRDRFTDEQLEEDFVKQFN,0.728
12,DEEDLRKQANEVAEMFMHGDPTDAREQFDKHAEVQYGDKVVHGKEQAAQLVKEFRDNVDRVELKRVEAHGDKVTVTVVFTVNGRKVVIVFEMRIHNGKIKSVDAHVTSEELHKRMQD,0.155
13,DEENKKRFDKFQEVQKQGDPKQLQSLMDPNVEWRVGDKNYHGRQEIAKDRIRVQREIRIEFNITHYENHNGRVKIHAEAKAKVNGRPQTYDYSFEVVVHNGKIKELNWRVDPEEVDRIES,0.67
14,DDTAVKIATRFWKAVETNDEQTLRDNLDPNVEVRYGDKTYHGMEDILKRLRHDADNMRHKVEIKDYRTHNGQANIDMVVRQEHNGKPERRRFKLHFRISNGRVRTMKLNDDS,0.733
15,DEESKKQIDNWLKAVQQGDPDQLVKNVDKDVTVEYGDKSIHGRESLMKTLEDKKKQWRLEFKSVDVDVHGDKARLDVDVVLQINGQPFRHTRTIHVHLHNGRVKHMRFRFDEQQQRDMDR,1.12
16,DEEDIAHQWQDKMRTAFKDNDPEQFTQLADEDAKMHVGDTEYHGRDTIMKTLVDEAKRADRITFNVQDFRVNGNNVVVRLEIRMQHNGKEDSKVVRLVFNQSGDDMRLRYAHDG,0.338
17,DDEEHRRILERFVRAFQTGDEDDLRNLADPNAKAQVGDKQVHGMDKFATHIRELVDRIDHIDVKSLTASGNTLHARIKFRVNGHDVTVVMRIQVHNGKLKRIEIDPEVVRQIEG,1.22
18,DDDARRVINDALEAMNSNNESQLAHLFDPNATFEVGDREIHGRDDFREWVRQMQEEMRFSVSVRDVQERPNHVKFDVEYEEEKNGNPDKHRAVLKARARNGKITELKLDNHK,0.075
19,DEEHQHSLARTLATALRTGDPEKMKDLADKDVKVVVGDKHIKGRKDAKKWAKDWRDRYDHAQVDDVNVQGENVRIVMNVEVDGHNVVVVMTAIIDGDQVKNVKVTARNEEQEKKMKK,-0.268
20,DEDARKLAEELLKAQETGDPKTLKRLVDPNVKVDVGDKTFHGMDEINEEVTRTKRRQRVKIDRVSIHVRGDSVVIHVTEKNEKDGQPSSRQYVQEMRVTNGHVVEMKQNKSR,-0.468
21,DEHTSAHNFIEHEWKVFSTNDKKSMKELIDKNVKIDVGDKQVNGREEAARQEVETAKRVDHVDVKLQHLSVHNGRIKAQFRRVLRVDGQDNDEVLRFVIQLNNGNAQAKDKHET,0.115
22,DEEEELRRAVKAIKQYMTGNEQEVSKMADPNVKIQVGEKRIHGREQLRQEVKRLHDTVDHIEVLSITHTGNSAQVDARVEVDGRVQRFVLRVVMHNGRITSIVVEVTDEDRFKNMVK,1.2
23,EENEVEKIMQVAHSGDFDSLVELADPNVTIKVGDKEWHGREHATEFFEKMKRHIDHVDVKSMSAQGDKITVRAHFNVNGDTLDFNLHIVISNGRIQSVKIQVTSHELRKTLTDQLG,1.44
24,DEELQEEIEKFWKQLEFGNEDSLEKLMDPNAEMRVGDHTLHGRDSIAKELRRRQEEQRVDIHSYKLSAHNGRVTVNIDATFNHNGNPDRKIQRASLEISNGKLKRMDVRDEQ,-0.046
25,EEDELRKIKDLLRHGDFETLNRQAPPDATQTVGDQEFTGWEKLHKIWKDLKDRIDHLDWKRITISGETIEARYEFDVDGQRIDMSFRMEVHNGRIQHLEQRATDSDLQKRLKDVIE,0.069
